From article PMC6449189

Legend:
[1] = molecular target: Lachnospiraceae bacterium (ND2006) Cas12a (Lachnospiraceae bacterium (ND2006)); test: SEC-MALS
AcrVA4 = test: SEC-MALS

AcrVA4 (natural protein)
stoichiometry N (AcrVA4 per LbCas12a-crRNA) [1]: 2 | stoichiometry N (AcrVA4): 2
